Experimental findings from patent publication US20250145711A1 (Janssen / Centocor, published 2025) are described below.

Experiment [1] deals with T1, human PSMA on prostate cancer cell lines (22RV1, C4-2B) (human, UniProt Q04609 1-750).
T1 construct: also called PSMA-expressing cell lines
As to the kind of experiment: flow cytometry on 22RV1 cells. How it is done: (§1) 22RV1 and C4-2B cells were plated at 50,000 cells per well in 50 μl of assay medium (RPMI, 10% HI FBS) in V bottom plates. Serial dilutions of antibodies were prepared in assay medium with 50 μl of antibody dilutions added to the plates containing cells. The plates were incubated for 60 min at 37° C. at which time 100 μl of staining buffer (Becton Dickinson Cat #554657) was added to all wells of each plate. The plates were centrifuged at 300×G for 5 minutes and the medium was removed from the wells. 200 μl of staining buffer was added to all wells of each plate. The plates were centrifuged at 300× G for 5 minutes and the medium was removed from the wells. 50 μl of 2 μg/ml AlexaFluor647-labeled goat anti-human Fc was added to all wells of the plates and the plates were incubated for 30 minutes at 4° C. 150 μl of staining buffer was added to all wells of each plate. The plates were centrifuged at 300× G for 5 minutes and the medium was removed from the wells.

In experiment [2] the target is T1, human PSMA on prostate cancer cell …. The experiment is described as follows: flow cytometry on C4-2B cells. How it is done:
as §1

Experiment [3] deals with T2, recombinant human PSMA (human, UniProt Q04609 44-750).
T2 construct: also called hu PSMA; prostate-specific membrane antigen
As to the kind of experiment: SPR (Biacore 8K), antibody captured on anti-Fc, PSMA in solution. The method, then: The binding affinity of anti-PSMA to the recombinant human, cynomolgus or mouse PSMA was determined by surface plasmon resonance (SPR) using a Biacore 8K instrument\. […] The association and dissociation were monitored for 3 and 15 minutes, respectively, using a flow rate of 50 μL/min. Raw binding data was referenced by subtracting the analyte binding signals from blanks and analyzed using a 1:1 Langmuir binding model using the Biacore Insight evaluation software to obtain the kinetics which were used to calculate the binding affinity. The anti-PSMA were captured using an anti-human Fc antibody and the antigens were injected in solution.

Where only a bound is given, the exact number is not on record here.

T2 sequence (Q04609 44-750 limits assumed): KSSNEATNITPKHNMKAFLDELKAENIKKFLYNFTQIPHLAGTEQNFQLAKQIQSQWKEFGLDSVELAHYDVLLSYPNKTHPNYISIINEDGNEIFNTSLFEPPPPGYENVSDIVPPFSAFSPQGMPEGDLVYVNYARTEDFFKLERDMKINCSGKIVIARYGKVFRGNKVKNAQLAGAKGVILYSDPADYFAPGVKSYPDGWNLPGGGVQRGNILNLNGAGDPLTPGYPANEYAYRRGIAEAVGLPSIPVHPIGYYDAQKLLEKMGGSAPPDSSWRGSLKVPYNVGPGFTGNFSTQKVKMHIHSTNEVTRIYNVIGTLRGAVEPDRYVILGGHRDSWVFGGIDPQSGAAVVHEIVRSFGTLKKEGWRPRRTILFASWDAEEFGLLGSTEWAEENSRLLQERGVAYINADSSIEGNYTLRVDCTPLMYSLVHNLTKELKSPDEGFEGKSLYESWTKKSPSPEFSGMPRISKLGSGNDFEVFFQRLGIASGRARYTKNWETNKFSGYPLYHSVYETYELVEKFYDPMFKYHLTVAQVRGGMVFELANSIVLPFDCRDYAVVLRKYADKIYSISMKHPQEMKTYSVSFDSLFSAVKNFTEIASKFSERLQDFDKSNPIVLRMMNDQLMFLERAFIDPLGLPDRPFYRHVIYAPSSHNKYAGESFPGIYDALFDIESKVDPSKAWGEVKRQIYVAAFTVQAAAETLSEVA
T1 sequence (Q04609 whole entry): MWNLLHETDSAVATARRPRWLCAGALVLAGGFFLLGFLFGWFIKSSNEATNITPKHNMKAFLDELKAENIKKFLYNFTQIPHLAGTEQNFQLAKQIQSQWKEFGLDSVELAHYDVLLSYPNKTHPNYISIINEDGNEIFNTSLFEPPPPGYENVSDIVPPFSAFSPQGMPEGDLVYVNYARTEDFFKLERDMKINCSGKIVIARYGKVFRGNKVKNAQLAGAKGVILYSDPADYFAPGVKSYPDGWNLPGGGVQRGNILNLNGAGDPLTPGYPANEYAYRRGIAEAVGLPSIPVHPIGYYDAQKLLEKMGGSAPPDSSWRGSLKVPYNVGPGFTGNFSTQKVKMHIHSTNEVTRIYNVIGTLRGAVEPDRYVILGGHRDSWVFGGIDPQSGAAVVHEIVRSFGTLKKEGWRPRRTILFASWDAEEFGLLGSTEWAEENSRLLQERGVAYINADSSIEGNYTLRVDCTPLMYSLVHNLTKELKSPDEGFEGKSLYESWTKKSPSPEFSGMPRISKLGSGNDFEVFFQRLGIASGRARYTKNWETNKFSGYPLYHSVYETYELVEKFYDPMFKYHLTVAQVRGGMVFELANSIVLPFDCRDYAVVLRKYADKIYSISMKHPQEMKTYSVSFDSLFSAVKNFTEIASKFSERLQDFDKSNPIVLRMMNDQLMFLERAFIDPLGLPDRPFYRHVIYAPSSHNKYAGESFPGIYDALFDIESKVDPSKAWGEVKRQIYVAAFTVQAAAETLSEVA

B1: PS3B931 (bispecific antibody, human IgG1, kappa, lambda, L234A L235A)
heavy 1: EVQLVESGGGLVKPGGSLRLSCAASGFTFSRYNMNWVRQAPGKGLEWVSSISTSSNYIYYADSVKGRFTFSRDNAKNSLDLQMSGLRAEDTAIYYCTRGWGPFDYWGQGTLVTVSSASTKGPSVFPLAPSSKSTSGGTAALGCLVKDYFPEPVTVSWNSGALTSGVHTFPAVLQSSGLYSLSSVVTVPSSSLGTQTYICNVNHKPSNTKVDKKVEPKSCDKTHTCPPCPAPEAAGGPSVFLFPPKPKDTLMISRTPEVTCVVVSVSHEDPEVKFNWYVDGVEVHNAKTKPREEQYNSTYRVVSVLTVLHQDWLNGKEYKCKVSNKALPAPIEKTISKAKGQPREPQVYTLPPSREEMTKNQVSLTCLVKGFYPSDIAVEWESNGQPENNYKTTPPVLDSDGSFLLYSKLTVDKSRWQQGNVFSCSVMHEALHNHYTQKSLSLSP
light 1: DIQMTQSPSSLSASVGDRVTITCRARQSIGTAIHWYQQKPGKAPKLLIKYASESISGVPSRFSGSGSGTDFTLTISSLQPEDFATYYCQQSGSWPYTFGQGTKLEIKRTVAAPSVFIFPPSDEQLKSGTASVVCLLNNFYPREAKVQWKVDNALQSGNSQESVTEQDSKDSTYSLSSTLTLSKADYEKHKVYACEVTHQGLSSPVTKSFNRGEC
heavy 2: EVQLVESGGGLVKPGGSLRLSCAASGFTFSRYNMNWVRQAPGKGLEWVSSINSNSRYIYYADSVKGRFTISRDSAKNSLYLQMNSLRAEDTAVYYCAKTMGDYYYYYGMDVWGQGTTVTVSSASTKGPSVFPLAPSSKSTSGGTAALGCLVKDYFPEPVTVSWNSGALTSGVHTFPAVLQSSGLYSLSSVVTVPSSSLGTQTYICNVNHKPSNTKVDKKVEPKSCDKTHTCPPCPAPEAAGGPSVFLFPPKPKDTLMISRTPEVTCVVVSVSHEDPEVKFNWYVDGVEVHNAKTKPREEQYNSTYRVVSVLTVLHQDWLNGKEYKCKVSNKALPAPIEKTISKAKGQPREPQVYTLPPSREEMTKNQVSLTCLVKGFYPSDIAVEWESNGQPENNYKTTPPVLDSDGSFFLYSRLTVDKSRWQQGNVFSCSVMHEALHNHYTQKSLSLSPG
light 2: SSELTQPPSVSGAPGQRVTISCAGSLSNIGAGYDVHWYQQLPGTAPKLLIYGNINRLSGVPERFSGSKSGTSASLAITGLQAEDGADYYCQSYDSSLSSYVFGTGTKVTVLGQPKAAPSVTLFPPSSEELQANKATLVCLISDFYPGAVTVAWKADSSPVKAGVETTTPSKQSNNKYAASSYLSLTPEQWKSHRSYSCQVTHEGSTVEKTVAPTECS
notes: FAB-A: CD3B2183 (CD3W245); FAB-B: PSMB890
With B1, the EC50 in experiment [1] and in experiment [2] was 60 nM each time.

B2: PS3B913 (bispecific antibody, human IgG1, lambda, L234A L235A)
heavy 1: QVQLQQSGPRLVRPSQTLSLTCAISGDSVFNNNAAWSWIRQSPSRGLEWLGRTYYRSKWLYDYAVSVKSRITVNPDTSRNQFTLQLNSVTPEDTALYYCARGYSSSFDYWGQGTLVTVSSASTKGPSVFPLAPSSKSTSGGTAALGCLVKDYFPEPVTVSWNSGALTSGVHTFPAVLQSSGLYSLSSVVTVPSSSLGTQTYICNVNHKPSNTKVDKKVEPKSCDKTHTCPPCPAPEAAGGPSVFLFPPKPKDTLMISRTPEVTCVVVSVSHEDPEVKFNWYVDGVEVHNAKTKPREEQYNSTYRVVSVLTVLHQDWLNGKEYKCKVSNKALPAPIEKTISKAKGQPREPQVYTLPPSREEMTKNQVSLTCLVKGFYPSDIAVEWESNGQPENNYKTTPPVLDSDGSFLLYSKLTVDKSRWQQGNVFSCSVMHEALHNHYTQKSLSLSPG
light 1: QSALTQPASVSGSPGQSITISCTGTSSNIGTYKFVSWYQQHPDKAPKVLLYEVSKRPSGVSSRFSGSKSGNTASLTISGLQAEDQADYHCVSYAGSGTLLFGGGTKLTVLGQPKAAPSVTLFPPSSEELQANKATLVCLISDFYPGAVTVAWKADSSPVKAGVETTTPSKQSNNKYAASSYLSLTPEQWKSHRSYSCQVTHEGSTVEKTVAPTECS
heavy 2: not shown
light 2: not shown
notes: FAB-A: CD3B891 (CD3B376 - K477); FAB-B: PSMB891
Regarding B2, the 50% effective concentration (EC50) in experiment [1] stood at 3.42 nM; in experiment [2], 4.56 nM. Besides, the Kd in experiment [3] was ≤ 0.24 nM.

B3: PS3B915 (bispecific antibody, human IgG1, lambda, L234A L235A)
heavy 1: QVQLQQSGPRLVRPSQTLSLTCAISGDSVFNNNAAWSWIRQSPSRGLEWLGRTYYRSKWLYDYAVSVKSRITVNPDTSRNQFTLQLNSVTPEDTALYYCARGYSSSFDYWGQGTLVTVSSASTKGPSVFPLAPSSKSTSGGTAALGCLVKDYFPEPVTVSWNSGALTSGVHTFPAVLQSSGLYSLSSVVTVPSSSLGTQTYICNVNHKPSNTKVDKKVEPKSCDKTHTCPPCPAPEAAGGPSVFLFPPKPKDTLMISRTPEVTCVVVSVSHEDPEVKFNWYVDGVEVHNAKTKPREEQYNSTYRVVSVLTVLHQDWLNGKEYKCKVSNKALPAPIEKTISKAKGQPREPQVYTLPPSREEMTKNQVSLTCLVKGFYPSDIAVEWESNGQPENNYKTTPPVLDSDGSFLLYSKLTVDKSRWQQGNVFSCSVMHEALHNHYTQKSLSLSPG
light 1: QSALTQPASVSGSPGQSITISCTGTSSNIGTYKFVSWYQQHPDKAPKVLLYEVSKRPSGVSSRFSGSKSGNTASLTISGLQAEDQADYHCVSYAGSGTLLFGGGTKLTVLGQPKAAPSVTLFPPSSEELQANKATLVCLISDFYPGAVTVAWKADSSPVKAGVETTTPSKQSNNKYAASSYLSLTPEQWKSHRSYSCQVTHEGSTVEKTVAPTECS
heavy 2: not shown
light 2: not shown
notes: FAB-A: CD3B891 (CD3B376 - K477); FAB-B: PSMB892
Turning to B3, the concentration for a half-maximal effect (EC50) in experiment [1] and in experiment [2] was 60 nM throughout. Further, the dissociation constant (Kd) in experiment [3] is 1.89 nM.

B4: PS3B919 (bispecific antibody, human IgG1, lambda, L234A L235A)
heavy 1: QVQLQQSGPRLVRPSQTLSLTCAISGDSVFNNNAAWSWIRQSPSRGLEWLGRTYYRSKWLYDYAVSVKSRITVNPDTSRNQFTLQLNSVTPEDTALYYCARGYSSSFDYWGQGTLVTVSSASTKGPSVFPLAPSSKSTSGGTAALGCLVKDYFPEPVTVSWNSGALTSGVHTFPAVLQSSGLYSLSSVVTVPSSSLGTQTYICNVNHKPSNTKVDKKVEPKSCDKTHTCPPCPAPEAAGGPSVFLFPPKPKDTLMISRTPEVTCVVVSVSHEDPEVKFNWYVDGVEVHNAKTKPREEQYNSTYRVVSVLTVLHQDWLNGKEYKCKVSNKALPAPIEKTISKAKGQPREPQVYTLPPSREEMTKNQVSLTCLVKGFYPSDIAVEWESNGQPENNYKTTPPVLDSDGSFLLYSKLTVDKSRWQQGNVFSCSVMHEALHNHYTQKSLSLSPG
light 1: QSALTQPASVSGSPGQSITISCTGTSSNIGTYKFVSWYQQHPDKAPKVLLYEVSKRPSGVSSRFSGSKSGNTASLTISGLQAEDQADYHCVSYAGSGTLLFGGGTKLTVLGQPKAAPSVTLFPPSSEELQANKATLVCLISDFYPGAVTVAWKADSSPVKAGVETTTPSKQSNNKYAASSYLSLTPEQWKSHRSYSCQVTHEGSTVEKTVAPTECS
heavy 2: EVQLVESGGGLVQPGGSLRLSCAASGFTFSSYAMSWVRQAPGKGLEWVSAISGGIGSTYYADSVKGRFTISRDNSKNTLWLQMNSLRAEDTAVYYCAKDGVGATPYYFDYWGQGTLVTVSSASTKGPSVFPLAPSSKSTSGGTAALGCLVKDYFPEPVTVSWNSGALTSGVHTFPAVLQSSGLYSLSSVVTVPSSSLGTQTYICNVNHKPSNTKVDKKVEPKSCDKTHTCPPCPAPEAAGGPSVFLFPPKPKDTLMISRTPEVTCVVVSVSHEDPEVKFNWYVDGVEVHNAKTKPREEQYNSTYRVVSVLTVLHQDWLNGKEYKCKVSNKALPAPIEKTISKAKGQPREPQVYTLPPSREEMTKNQVSLTCLVKGFYPSDIAVEWESNGQPENNYKTTPPVLDSDGSFFLYSRLTVDKSRWQQGNVFSCSVMHEALHNHYTQKSLSLSPG
light 2: QSVLTQPPSVSAAPGQKVTISCSGSSSNIGNNYVSWYQQLPGTAPKLLIYDNNKRPSGIPDRFSGSKSGTSATLGITGLQTGDEADYYCGTWDSSLSAYVFGTGTKVTVLGQPKAAPSVTLFPPSSEELQANKATLVCLISDFYPGAVTVAWKADSSPVKAGVETTTPSKQSNNKYAASSYLSLTPEQWKSHRSYSCQVTHEGSTVEKTVAPTECS
notes: FAB-A: CD3B891 (CD3B376 - K477); FAB-B: PSMB895
Take B4: the EC50 in experiment [1] stood at 24.9 nM; in experiment [2] it was 23.3 nM. Further, the Kd in experiment [3] was determined as 0.823 nM.
